Columns and labels:
[1] = biological target: T1, hiR2-FL-R582A-T7 (human, UniProt Q6PJF5 1-856); assay: FACS on MEF-DKO cells expressing the variant, 3 µg/ml antibody
T1 sequence: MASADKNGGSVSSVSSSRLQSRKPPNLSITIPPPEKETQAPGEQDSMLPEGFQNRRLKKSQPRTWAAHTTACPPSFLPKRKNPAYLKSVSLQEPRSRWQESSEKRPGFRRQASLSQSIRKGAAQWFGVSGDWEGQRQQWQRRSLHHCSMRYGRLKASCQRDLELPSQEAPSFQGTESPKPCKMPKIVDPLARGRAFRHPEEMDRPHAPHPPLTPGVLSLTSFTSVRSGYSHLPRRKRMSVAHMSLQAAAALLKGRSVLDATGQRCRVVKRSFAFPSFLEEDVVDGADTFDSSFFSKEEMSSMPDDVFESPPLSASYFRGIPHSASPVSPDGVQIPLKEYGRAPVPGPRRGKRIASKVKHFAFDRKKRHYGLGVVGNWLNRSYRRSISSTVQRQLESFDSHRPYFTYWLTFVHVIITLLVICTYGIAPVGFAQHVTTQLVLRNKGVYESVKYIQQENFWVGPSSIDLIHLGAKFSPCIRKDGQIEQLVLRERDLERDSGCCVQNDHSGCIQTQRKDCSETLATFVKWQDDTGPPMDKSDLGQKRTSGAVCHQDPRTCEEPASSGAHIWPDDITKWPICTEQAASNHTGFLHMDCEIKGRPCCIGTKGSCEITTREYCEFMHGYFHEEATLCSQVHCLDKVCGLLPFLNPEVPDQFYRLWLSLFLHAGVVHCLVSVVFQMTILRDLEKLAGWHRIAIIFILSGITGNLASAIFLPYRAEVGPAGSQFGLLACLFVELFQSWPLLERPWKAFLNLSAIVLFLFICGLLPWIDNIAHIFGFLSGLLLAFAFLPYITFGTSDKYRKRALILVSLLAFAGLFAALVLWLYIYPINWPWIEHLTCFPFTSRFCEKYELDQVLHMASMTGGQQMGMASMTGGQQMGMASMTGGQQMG
Outline: (§1)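 Read-out is PE fluorescence by flow cytometry after two-step staining: antibody at 3 μg/ml for 1 hour on ice, then PE-labelled goat anti-mouse IgG F(ab′)2 (1:100) for 1 hour on ice.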

[2] = biological target: T2, hiR2-FL-Q580A-T7 (human, UniProt Q6PJF5 1-856); assay: as above
T2 sequence: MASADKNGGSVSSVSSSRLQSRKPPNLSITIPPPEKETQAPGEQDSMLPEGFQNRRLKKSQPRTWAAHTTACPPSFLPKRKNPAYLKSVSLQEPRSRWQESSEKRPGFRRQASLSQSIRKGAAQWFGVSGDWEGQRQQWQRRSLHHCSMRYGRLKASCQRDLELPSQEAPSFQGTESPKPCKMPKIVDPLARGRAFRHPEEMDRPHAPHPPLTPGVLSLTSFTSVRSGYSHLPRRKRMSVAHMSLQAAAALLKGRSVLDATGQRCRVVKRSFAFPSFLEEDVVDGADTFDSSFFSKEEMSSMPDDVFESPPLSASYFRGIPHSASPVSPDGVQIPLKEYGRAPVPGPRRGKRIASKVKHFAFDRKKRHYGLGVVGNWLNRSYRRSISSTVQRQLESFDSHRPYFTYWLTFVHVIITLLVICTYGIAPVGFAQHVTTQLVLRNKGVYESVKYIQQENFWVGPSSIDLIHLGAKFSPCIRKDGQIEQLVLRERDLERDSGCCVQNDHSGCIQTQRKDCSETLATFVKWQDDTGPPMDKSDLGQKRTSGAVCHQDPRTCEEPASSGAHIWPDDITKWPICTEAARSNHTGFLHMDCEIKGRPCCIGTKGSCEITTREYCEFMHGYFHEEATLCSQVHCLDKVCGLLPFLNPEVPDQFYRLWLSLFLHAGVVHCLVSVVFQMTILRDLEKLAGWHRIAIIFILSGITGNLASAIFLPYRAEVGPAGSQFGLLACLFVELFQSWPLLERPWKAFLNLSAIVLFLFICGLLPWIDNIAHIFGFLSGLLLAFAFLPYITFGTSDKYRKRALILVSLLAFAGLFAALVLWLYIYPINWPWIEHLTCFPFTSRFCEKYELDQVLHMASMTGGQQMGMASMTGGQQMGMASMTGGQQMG
Outline: as §1

B1: antibody 3 (antibody, V domains shown)
VH: QVTLKESGPGILQPSQTLSLTCSFSGFSLTTFAMGIGWVRQPSGKGLEWLAHIWWDGEKYNNPVLKSRLTISKDTSKNQVFLRIANVDTPDTATYYCARISSIYYIIDNWGQGTSVTVSS
VL: DIVLTQSPATLSVTPGHSVSLSCRASQSISNNLHWYQKKSHESPRLLIKYVSQSISGIPSRFSGSGSGTDFTLSINSVETEDFGMYFCQQSYNWPLTFGAGTKLELK
notes: mouse IgG, kappa light chain; also called clone #3; purified antibody 3
- loss of binding vs wild type [1]: ≥ 30%
- loss of binding vs wild type [2]: ≥ 30%
